Measurements reported in patent CN112972675A.

Biological target: 人PD-1 (程序性死亡受体1) (human) (UniProt Q15116)
Experiment: flow cytometry receptor occupancy on patients' peripheral blood T lymphocytes (CD45RA-); bound toripalimab detected with PE-labelled anti-human IgG4 Fc, total PD-1 after saturation with toripalimab; dose groups 1, 3 and 10 mg/kg Q2W

Sequence of UniProt Q15116 (Q15116 25-288): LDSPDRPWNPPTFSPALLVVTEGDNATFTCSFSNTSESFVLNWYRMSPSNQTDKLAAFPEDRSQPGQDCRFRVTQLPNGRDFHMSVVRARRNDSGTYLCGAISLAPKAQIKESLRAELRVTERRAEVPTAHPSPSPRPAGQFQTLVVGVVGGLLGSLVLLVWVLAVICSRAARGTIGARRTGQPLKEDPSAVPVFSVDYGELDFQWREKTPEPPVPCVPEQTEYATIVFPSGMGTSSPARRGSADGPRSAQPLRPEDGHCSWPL

PD-1受体占位率(RO): > 80%
Substance: 特瑞普利单抗(Toripalimab) (antibody)
